Measured values: US20030157644A1 (MOUNT SINAI SCHOOL OF MEDICINE OF THE CITY UNIVERSITY OF …, published 2003)
Ends that are not written are not given here.

Experiments:
phospholipase C-β2 [1] = target: T1, phospholipase C-β2 (human, UniProt Q00722 1-1185, Cascade Blue acetyl azide label on amines, labelling ratio 1:1 (FRET experiment only)); test: cell-based or functional assay
phospholipase C-β2 [2] = target: T1, phospholipase C-β2; test: fluorescence resonance energy transfer, DABMI-peptide and Cascade Blue-PLC-β2, with and without phospholipids
Experimental: The reaction was allowed to proceed for 30 minutes at room temperature before quenching with 5 mM DTT. The final labeling ratios, as determined by absorption, were 1:1 for CB-PLC-β2 and 0.8 for the two DABMI-peptides. Fluorescence spectra were taken on an ISS-PC7 (ISS Champaign, IL) photon counting spectrofluorometer using a 3×3 mm cuvette and exciting at 380 nm and scanning from 400-560 nm.
The stimulation by maximal concentration of peptide was non-additive with Gβγ stimulation (FIG. 5A, upper panel).

T1 sequence (Q00722 other isoform, or with tags, fused parts or gaps limits assumed): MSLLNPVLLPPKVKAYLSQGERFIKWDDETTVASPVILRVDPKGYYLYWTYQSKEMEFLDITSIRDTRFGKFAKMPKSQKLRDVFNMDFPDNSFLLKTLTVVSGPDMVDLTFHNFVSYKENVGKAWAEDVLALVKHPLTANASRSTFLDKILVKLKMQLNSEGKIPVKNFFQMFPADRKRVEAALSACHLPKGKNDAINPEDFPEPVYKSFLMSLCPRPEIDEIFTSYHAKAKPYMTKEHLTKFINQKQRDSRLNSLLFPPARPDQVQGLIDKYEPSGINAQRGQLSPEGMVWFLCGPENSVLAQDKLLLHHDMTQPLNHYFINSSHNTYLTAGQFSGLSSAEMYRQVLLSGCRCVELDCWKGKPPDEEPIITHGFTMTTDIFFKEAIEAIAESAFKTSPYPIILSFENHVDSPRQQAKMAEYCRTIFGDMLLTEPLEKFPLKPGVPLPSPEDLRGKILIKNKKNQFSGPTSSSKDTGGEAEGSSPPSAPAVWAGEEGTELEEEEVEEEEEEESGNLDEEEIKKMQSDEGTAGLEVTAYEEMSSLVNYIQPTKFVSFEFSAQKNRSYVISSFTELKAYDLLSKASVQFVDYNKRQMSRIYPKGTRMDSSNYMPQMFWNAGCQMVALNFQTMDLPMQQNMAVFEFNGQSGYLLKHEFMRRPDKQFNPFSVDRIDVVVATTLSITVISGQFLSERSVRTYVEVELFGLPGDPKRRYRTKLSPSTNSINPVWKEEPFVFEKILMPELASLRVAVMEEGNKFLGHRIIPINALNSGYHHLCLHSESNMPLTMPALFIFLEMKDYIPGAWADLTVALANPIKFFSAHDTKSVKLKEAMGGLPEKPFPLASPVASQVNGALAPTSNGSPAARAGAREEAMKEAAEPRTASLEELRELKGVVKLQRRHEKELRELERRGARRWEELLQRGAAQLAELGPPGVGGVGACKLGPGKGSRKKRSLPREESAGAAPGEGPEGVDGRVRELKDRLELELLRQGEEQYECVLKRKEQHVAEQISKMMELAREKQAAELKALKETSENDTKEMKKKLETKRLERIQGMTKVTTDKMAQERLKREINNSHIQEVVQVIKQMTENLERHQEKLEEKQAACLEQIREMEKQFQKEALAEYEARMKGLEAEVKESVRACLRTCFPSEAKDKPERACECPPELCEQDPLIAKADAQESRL

| Binder | fold change in affinity of PLC-β2 stimulation against the Gβ 86-105 peptide (phospholipase C-β2 [1]) [fold] | binding result (phospholipase C-β2 [2]) |
| --- | --- | --- |
| TTNKVHAIPLRSAWVMTCAY (not fully specified) [Gβ 86-105 peptide with S98 substituted with alanine] | ~2 |  |
| TTNKVHAIPLRSSWVNTCAY (also: DABMI maleimide label in FRET experiment, residue not given here, Synthetic peptide; also called m-TTN) [Gβ 86-105 M101N substituted peptide] |  | no binding |
| TTNKVHAIPLRRRWVMTCAY [S97,98R Gβ 86-105 peptide] | 5 |  |
